System: LS174T cells
Experiment: Apoptosis, Caspase-Glo 3/7 assay
Assay type: cell-based, human
Conditions: 50 nM recombinant TRAIL, 2 hrs

B1: TRAIL: recombinant TRAIL (R&D Systems), positive control for apoptosis (protein, UniProt P50591 1-281, looked up)
Tumor necrosis factor ligand …: MAMMEVQGGPSLGQTCVLIVIFTVLLQSLCVAVTYVYFTNELKQMQDKYSKSGIACFLKEDDSYWDPNDEESMNSPCWQVKWQLRQLVRKMILRTSEETISTVQEKQQNISPLVRERGPQRVAAHITGTRGRSNTLSSPNSKNEKALGRKINSWESSRSGHSFLSNLHLRNGELVIHEKGFYYIYSQTYFRFQEEIKENTKNDKQMVQYIYKYTSYPDPILLMKSARNSCWSKDAEYGLYSIYQGGIFELKENDRIFVSVTNEHLIDMDHEASFFGAFLVG
apoptosis (caspase 3/7), positive control: large increase in apoptosis

— patent US8685401B2, “Methods of enhancing the response to radiation in tumor therapy using anti-DLL4 antibodies” (priority 2011, dated 2014)
